Measured values reported in the Human Domainome abundance scans (Beltran et al. 2025).
± gives the uncertainty stated by the source.

B1: Peripheral plasma membrane protein CASK, residues 488 to 569; numbered along this chain, O14936 (parent)
chain: VRLVQFQKNTDEPMGITLKMNELNHCIVARIMHGGMIHRQGTLHVGDEIREINGISVANQTVEQLQKMLREMRGSITFKIVP
B2: Far upstream element-binding protein 1, residues 184 to 257; numbered along this chain, Q96AE4 (parent)
chain: GNAVQEIMIPASKAGLVIGKGGETIKQLQERAGVKMVMIQDGPQNTGADKPLRITGDPYKVQQAKEMVLELIRD

Variants of: B1
Experiment: abundance fitness (aPCA) (normalised: wild type 0, dead -1); higher = more abundant; growth selection in yeast, the domain comes from the species named
Conditions: Homo sapiens

Abundance fitness, by site and new letter:
I80: K -0.802 ± 0.15; L -0.113 ± 0.028; M -0.169 ± 0.046; N -0.836 ± 0.14; P -0.921 ± 0.08; Q -0.894 ± 0.13; R -0.795 ± 0.081; S -0.424 ± 0.038; T -0.142 ± 0.038; V 0.012 ± 0.037; W -0.383 ± 0.081; Y -0.188 ± 0.06
V81: A -0.054 ± 0.034; C -0.036 ± 0.048; E -0.104 ± 0.046; F -0.02 ± 0.038; G -0.106 ± 0.041; H -0.073 ± 0.041; I -0.016 ± 0.039; L 0.005 ± 0.027; M -0.05 ± 0.038; N -0.118 ± 0.046; P -0.658 ± 0.08; Q -0.001 ± 0.048; S -0.044 ± 0.032; T -0.075 ± 0.034; W -0.102 ± 0.046; Y -0.035 ± 0.038
P82: A -0.016 ± 0.046; C -0.072 ± 0.093; D -0.039 ± 0.07; E -0.047 ± 0.076; G -0.083 ± 0.067; H -0.151 ± 0.097; I -0.237 ± 0.27; K -0.143 ± 0.092; L -0.214 ± 0.053; M -0.204 ± 0.077; N -0.048 ± 0.084; Q 0.02 ± 0.073; R -0.063 ± 0.044; S -0.021 ± 0.035; T -0.042 ± 0.049; V -0.089 ± 0.056; W -0.359 ± 0.091; Y -0.45 ± 0.17

Variants of: B2
Experiment: as above
Conditions: Homo sapiens

Abundance fitness, by site and new letter:
G1: A -0.075 ± 0.039; C -0.127 ± 0.053; D -0.067 ± 0.042; E -0.061 ± 0.039; F -0.027 ± 0.074; I 0.193 ± 0.086; K -0.044 ± 0.068; L -0.042 ± 0.049; M 0.173 ± 0.068; N -0.073 ± 0.076; P -0.212 ± 0.093; Q -0.26 ± 0.13; R -0.176 ± 0.038; S -0.14 ± 0.045; V 0.038 ± 0.034; W -0.502 ± 0.056; Y -0.074 ± 0.067
N2: A 0.043 ± 0.033; C 0.052 ± 0.046; D -0.224 ± 0.047; E 0.176 ± 0.037; F 0.043 ± 0.047; H -0.311 ± 0.058; I 0.168 ± 0.047; K 0.155 ± 0.034; L 0.09 ± 0.033; M 0.201 ± 0.038; P -0.028 ± 0.038; Q 0.095 ± 0.04; R 0.032 ± 0.028; S 0.128 ± 0.031; T 0.154 ± 0.034; V 0.121 ± 0.033; W -0.028 ± 0.036; Y -0.124 ± 0.053
A3: E 0.039 ± 0.036; F 0.165 ± 0.053; G -0.059 ± 0.027; H -0.044 ± 0.05; I 0.255 ± 0.053; K 0.181 ± 0.039; L 0.172 ± 0.031; M 0.256 ± 0.039; N 0.057 ± 0.053; P 0.109 ± 0.037; Q 0.133 ± 0.038; R 0.17 ± 0.027; S 0.196 ± 0.032; T 0.235 ± 0.037; V 0.011 ± 0.032; W 0.116 ± 0.033; Y 0.158 ± 0.057
V4: A -0.259 ± 0.033; C -0.069 ± 0.043; D -0.063 ± 0.043; E 0.051 ± 0.034; F 0.112 ± 0.047; G -0.146 ± 0.026; H 0.031 ± 0.047; I 0.097 ± 0.042; K 0.027 ± 0.037; L -0.065 ± 0.03; M 0.11 ± 0.037; N 0.073 ± 0.048; P -0.56 ± 0.048; Q 0.009 ± 0.04; R -0.053 ± 0.026; S -0.18 ± 0.033; T 0.029 ± 0.036; W -0.105 ± 0.034; Y -0.013 ± 0.05
Q5: A -0.007 ± 0.03; C -0.006 ± 0.045; D 0.021 ± 0.041; E 0.128 ± 0.034; F -0.063 ± 0.051; G -0.036 ± 0.026; H -0.108 ± 0.058; I 0.014 ± 0.05; K 0.016 ± 0.036; L -0.029 ± 0.029; M 0.056 ± 0.035; N -0.083 ± 0.051; P -0.726 ± 0.045; R 0.013 ± 0.025; T 0.013 ± 0.031; V 0.04 ± 0.029; Y -0.003 ± 0.051
E6: A -0.12 ± 0.031; C -0.366 ± 0.044; D -0.1 ± 0.043; F -0.217 ± 0.046; G -0.358 ± 0.028; H -0.086 ± 0.045; I -0.101 ± 0.047; L -0.187 ± 0.03; M -0.078 ± 0.042; N -0.146 ± 0.047; P -0.809 ± 0.053; Q 0.024 ± 0.038; R -0.145 ± 0.026; S -0.185 ± 0.031; T -0.014 ± 0.035; V -0.028 ± 0.031; W -0.082 ± 0.033; Y -0.232 ± 0.048
I7: A -0.674 ± 0.041; C -0.394 ± 0.045; D -1.02 ± 0.076; E -0.646 ± 0.041; F -0.229 ± 0.055; G -0.885 ± 0.035; L -0.026 ± 0.03; N -1.09 ± 0.1; P -1.14 ± 0.079; Q -0.559 ± 0.047; R -0.861 ± 0.035; T -0.564 ± 0.045; V -0.045 ± 0.03; W -0.651 ± 0.04; Y -0.597 ± 0.058
